# Reference: US7038112B2, “Fatty acid elongases” (Miami University, priority 1997, dated 2006)
# Read-outs that look alike come from different tables or passages of the source.
# B1: FAE1: Known Arabidopsis FAE1 elongase β-ketoacyl synthase expressed in yeast, used as comparator (protein, UniProt Q38860 1-506, looked up)
# 3-ketoacyl-CoA synthase 18: MTSVNVKLLYRYVLTNFFNLCLFPLTAFLAGKASRLTINDLHNFLSYLQHNLITVTLLFAFTVFGLVLYIVTRPNPVYLVDYSCYLPPPHLKVSVSKVMDIFYQIRKADTSSRNVACDDPSSLDFLRKIQERSGLGDETYSPEGLIHVPPRKTFAASREETEKVIIGALENLFENTKVNPREIGILVVNSSMFNPTPSLSAMVVNTFKLRSNIKSFNLGGMGCSAGVIAIDLAKDLLHVHKNTYALVVSTENITQGIYAGENRSMMVSNCLFRVGGAAILLSNKSGDRRRSKYKLVHTVRTHTGADDKSFRCVQQEDDESGKIGVCLSKDITNVAGTTLTKNIATLGPLILPLSEKFLFFATFVAKKLLKDKIKHYYVPDFKLAVDHFCIHAGGRAVIDELEKNLGLSPIDVEASRSTLHRFGNTSSSSIWYELAYIEAKGRMKKGNKAWQIALGSGFKCNSAVWVALRNVKASANSPWQHCIDRYPVKIDSDLSKSKTHVQNGRS
# Assays:
# [1] = tested on: Saccharomyces cerevisiae strain AB1380; assay: Fatty acid composition of yeast cells transformed with pYEUra3/FAE1; format: cell-based; details: galactose-induced yeast containing the FAE1 coding sequence
# Experimental: Yeast transformed with pYEUra3 having FAE1 operably linked to the GAL1 promoter were grown in the presence of galactose or glucose and were analyzed for the expression of FAE1. As a control, yeast transformed with pYEUra3 containing no insert were also assayed. Analysis of such control preparations yielded fatty acid compositions and fatty acid elongation rates similar to those of yeast transformed with pYEUra3/FAE1. and grown with glucose as the carbon source.
# The fatty acid composition of yeast cells grown in the presence of galactose was compared to that of cells grown in the presence of glucose, to determine if VLCFA were found in the galactose-induced cells.
# Transformed yeast cells were grown overnight in YPD media at 30° C. with vigorous shaking. One hundred μl of the overnight culture were used to inoculate 40 ml of complete minimal uracil dropout media (CM-Ura) supplemented with either glucose or galactose (2% w/v). Cultures were grown at 30° C. to an OD600 of approximately 1.3 to 1.5. Cells were harvested by centrifugation at 5000×g for 10 min. Total lipids were extracted from the cells with 2 volumes of 4N KOH in 100% methanol for 60 min. at 80° C. […] Methyl esters were analyzed on an HP 5890 series II gas chromatograph equipped with a 5771MSD and 7673 auto injector (Hewlett-Packard, Cincinnati, Ohio.). […]
# [2] = In vitro fatty acid elongation assay with yeast microsomes, 18:0 acyl-CoA substrate; format: biochemical, Saccharomyces cerevisiae
# Experimental: (§1) Transformed yeast cells were grown in the presence of either glucose or galactose (2% w/v) as described in Example 1. Cells were harvested by centrifugation at 5000×g for 10 min and washed with 10 ml ice cold isolation buffer (IB), which contains 80 mM Hepes-KOH, pH 7.2, 5 mM EGTA, 5 mM EDTA, 10 mM KC1, 320 mM sucrose and 2 mM DTT). Cells were then resuspended in enough IB to fill a 1.7 ml tube containing 700 μl of 0.5 μm glass beads and yeast microsomes were isolated from the cells essentially as described in Tillman, T. and Bell, R., J. Biol. Chem. 261:9144–9149 (1986). The microsomal membrane pellet was recovered by centrifugation at 252,000×g for 60 min. The pellet was rinsed by resuspending in 40 ml fresh IB and again recovered by centrifugation at 252000×g for 60 min. Microsomal pellets were resuspended in a minimal volume of IB, and the protein concentration adjusted to 2.5 μg μl^−1 by addition of IB containing 15% glycerol. Microsomes were frozen on dry ice and stored at −80° C. The protein concentration in microsomes was determined by the Bradford method (Bradford, 1976).
# (§2) Fatty acid elongase activity was measured essentially as described in Hlousek-Radojcic, A. et al., Plant J. 8:803–809 (1995). Briefly, the standard elongation reaction mix contained 80 mM Hepes-KOH, pH 7.2, 20 mM MgCl2, 500 μM NADPH, 1 mM ATP, 100 μM malonyl-CoA, 10 μM CoA-SH and 15 μM radioactive acyl-CoA substrate. The radiolabeled substrate was either [1^−14C]18:1-CoA (50 uCi μmol^−1), [1^−14C]18:0-CoA (55 uCi μmol^−1), or [1^−14C]16:0-CoA (54 uCi μmol^−1). The reaction was initiated by the addition of yeast microsomes (5 μg protein) and the mixture incubated at 30° C. for the indicated period of time. The final reaction volume was 25 μl.
# (§3) Methyl esters of the acyl-CoA elongation products were prepared as described in Example 1. Methyl esters were separated on reversed phase silica gel KC18 TLC plates (Whatman, […] thick), quantified by phosphorimaging, and analyzed on by ImageQuant software (Molecular Dynamics, Inc., Sunnyvale, Calif.). The detection limit for each product is about 0.001 nanomoles per min. per mg microsomal protein, depending on the phosphorimage exposure time.
# (§4) Yeast cultures containing full-length EL1 in λYES and full-length EL2 in pYEUra3 were grown in the presence of galactose or glucose as described in Example 2. Microsomes were then prepared from each of the cultures and fatty acid elongation assays were carried out as described in Example 2.
# (§5) In the first experiment, microsomes were prepared from galactose-induced cultures of EL1, EL2 and FAE1, and incubated with either [1-^14C] 18:0 acyl-CoA or [1-^14C] 18:1 acyl-CoA as substrate. The amounts of various reaction products synthesized after 30 minutes (min) were determined as described in Example 2.
# In a second experiment, microsomes were prepared from galactose-induced and from glucose-repressed yeast cultures containing EL1 or EL2 coding sequences. The microsomal preparations were incubated with either 18:0 acyl-CoA or 18:1 acyl-CoA as substrate and the fatty acid reaction products determined as described above. […]
# [3] = format: biochemical, Saccharomyces cerevisiae
# Experimental: as §1, §2, §3, §4, §5
# In a second experiment, microsomes were prepared from galactose-induced and from glucose-repressed yeast cultures containing EL1 or EL2 coding sequences. The microsomal preparations were incubated with either 18:0 acyl-CoA or 18:1 acyl-CoA as substrate and the fatty acid reaction products determined as described above.
# [4] = In vitro fatty acid elongation assay with yeast microsomes, 16:0 acyl-CoA substrate; format: biochemical, Saccharomyces cerevisiae
# Experimental: as §1, §2, §3
# [5] = 18:0-CoA substrate, galactose-induced, 30 min, first experiment
# [6] = 18:1-CoA substrate, galactose-induced, 30 min, first experiment
# [7] = microsomes from galactose-induced cells
molecule,measurement,setting,value
B1,very long chain fatty acids in transformed yeast cells,[1],appearance of both 20:1 and 22:1 acyl-CoA products
same,(%) 20:0 acyl-CoA product,[2]; [5],64.3%
same,(%) 22:0 acyl-CoA product,[2]; [5],18.6%
same,(%) 24:0 acyl-CoA product,[2]; [5],10.7%
same,(%) 26:0 acyl-CoA product,[2]; [5],6.3%
same,(%) Total acyl-CoA products,[2]; [5],100.0%
same,"Rate, 20:0 acyl-CoA product",[2]; [5],0.369 Nanomoles/minute/mg of microsomal protein
same,"Rate, 22:0 acyl-CoA product",[2]; [5],0.113 Nanomoles/minute/mg of microsomal protein
same,"Rate, 24:0 acyl-CoA product",[2]; [5],0.065 Nanomoles/minute/mg of microsomal protein
same,"Rate, 26:0 acyl-CoA product",[2]; [5],0.038 Nanomoles/minute/mg of microsomal protein
same,"Rate, Total acyl-CoA products",[2]; [5],0.585 Nanomoles/minute/mg of microsomal protein
same,synthesis of 20:0 CoA from the 18:0 CoA substrate,[2]; microsomes from induced yeast,5.1 nmol mg protein^−1
same,"increase in 18:1 CoA elongation, microsomes from induced vs uninduced cells",[3],about 18 fold
same,(%) 20:1 acyl-CoA product,[3]; [6],84.6%
same,(%) 22:1 acyl-CoA product,[3]; [6],15.4%
same,(%) 24:1 acyl-CoA product,[3]; [6],0.0%
same,(%) 26:1 acyl-CoA product,[3]; [6],0.0%
same,(%) Total acyl-CoA products,[3]; [6],100.0%
same,"Rate, 20:1 acyl-CoA product",[3]; [6],1.131 Nanomoles/minute/mg of microsomal protein
same,"Rate, 22:1 acyl-CoA product",[3]; [6],0.206 Nanomoles/minute/mg of microsomal protein
same,"Rate, 24:1 acyl-CoA product",[3]; [6],0.0 Nanomoles/minute/mg of microsomal protein
same,"Rate, 26:1 acyl-CoA product",[3]; [6],0.0 Nanomoles/minute/mg of microsomal protein
same,"Rate, Total acyl-CoA products",[3]; [6],1.337 Nanomoles/minute/mg of microsomal protein
same,rate of elongation of oleoyl-CoA relative to rate of elongation of 16:0-CoA,[3]; [7],about 2 fold
same,rate of elongation of oleoyl-CoA relative to rate of elongation of 18:0-CoA,[3]; [7],~3 fold
same,"FAE1 elongase KAS activity, difference in 16:0 elongation rates between induced and uninduced microsomes",[4]; induced minus uninduced,5.7 nmol mg protein^−1
same,"16:0-CoA elongation by microsomes from induced cells, higher than uninduced cells",[4]; induced vs uninduced,more than 50%
same,total rate of elongation of [14C]16:0-CoA,"[4]; microsomes from induced cells, at 30 min",15.8 nmol mg protein^−1
same,synthesis of 20:0 CoA from the 16:0 CoA substrate,[4]; microsomes from induced yeast,4.2 nmol mg protein^−1
